The values that follow come from US20240207421A1, “NERVE TARGETING PEPTIDES AND METHODS OF USE” (ALUME BIOSCIENCES, INC., priority 2020, published 2024).

One test relates to Human Nidogen-2. Put plainly: Phage display library screening (Example 2, Python script analysis), binding to Human Nidogen-2. The following applies: combined unique sequence count, Python/R script analysis. As for the experimental part:
(§1) Phage display library screens were used to identify peptides that bind to target proteins (including specific laminin trimers) that are expressed in human nerves, as described in Table 3. These screens were also carried out to identify peptides that could bind selectively to nerves versus muscle. Such peptides could therefore be useful for systemic in-vivo labeling of nerves during fluorescence assisted surgery. Specifically, m 13 phage libraries expressing 7 or 12 random amino acid peptides, or a cyclic peptide CX7C, on the N-terminus of the minor coat protein pIII (New England Biolabs; NEB) were processed through multiple rounds of selection for binding to target proteins expressed in nerves, or to excised human nerves, nerve extracts, or muscle, as described further below.
(§2) For screening against the specified target proteins in Table 1, including LN211, LN411, LN421, and LN521, the phage library was processed by up to 4 binding and wash cycles. For selection, phage libraries were incubated for up to 24 hours at 4° C. in 96 well plates that had been coated with one of the target proteins. Plates were then washed with PBS and phage were eluted using 0.2M glycine pH 2.0. Phage supernatants where then neutralized with Tris pH 9.0 prior to plating on TGI bacteria and LB agar plates. Colonies were counted to determine titer followed by DNA preparation of pools of phage and NextGen sequencing. After rounds of selection, phage were pooled and amplified for iterative selection. Phage that were bound at each round were sequenced. NextGen sequencing of pools after 2, 3 and 4 rounds of selection was used to isolate candidate sequences that were analyzed further to identify those that specifically bound each unique target protein.
(§3) Python Script Analysis: For all NEB sequence datasets, a python script was used to translate, trim, and filter the peptide sequences. The script translated the nucleotide sequences, translating amber codons as glutamine in peptide sequences, and then trimmed the end sequences that come from the vector. Secondly, the script combined the unique counts of trimmed peptides with identical sequences. […] Another python script was used to group peptides from different assays according to protein target (Myelin Protein Zero, Myelin Proteolipid Protein, Myelin Basic Protein, and Nidogen-2) and also combine the unique sequence counts for each peptide. An R script was written to merge the peptide sequences from different data files and determine peptides specific for each protein target but absent from different protein binding datasets. Peptide sequences were ranked by unique sequence count.

Test [1] has as its target Human Myelin PLP (human) (UniProt P60201). Put plainly: phage display, NGS count.
Test [2] has the same target. In words: phage display R3, NGS count.
Test [3] concerns Human MPZ. In words: Phage display library screening (Example 2, Python script analysis), binding to Human MPZ. The following applies: combined unique sequence count, Python/R script analysis. The protocol:
as §1, §2, §3

Test [4] deals with T1, Human MPZ (Homo sapiens, UniProt P25189).
T1 construct: purchased Novoprotein (lysate); Bon Opus Biosciences (recombinant protein) NBL1 1321 (lysate); no catalogue number printed for the Bon Opus protein
T1 sequence (P25189 30-248): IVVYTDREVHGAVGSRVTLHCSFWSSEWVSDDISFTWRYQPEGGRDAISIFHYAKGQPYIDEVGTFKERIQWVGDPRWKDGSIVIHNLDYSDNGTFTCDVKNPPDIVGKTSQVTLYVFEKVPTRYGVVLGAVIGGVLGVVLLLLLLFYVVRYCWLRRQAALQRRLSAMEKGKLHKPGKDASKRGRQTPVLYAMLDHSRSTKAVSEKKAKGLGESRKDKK
Put plainly: Phage display library screening (Example 1, Power BI analysis), binding to Human MPZ. The conditions noted are these: R3 Human MPZ, NextGen sequencing count of phage sequences distinct for this target.
Text: Phage display library screens were used to identify peptides that bind to target proteins that are expressed in human nerves and could therefore be useful for systemic in-vivo labeling of nerves during fluorescence assisted surgery. Specifically, m13 phage libraries expressing 7 or 12 random amino acid peptides, or a cyclic peptide CX7C, on the N-terminus of the minor coat protein pIII (New England Biolabs) were processed through multiple rounds of selection for binding to target proteins expressed in peripheral nerve (Table 1).
as §2, with “The library” for “For screening against the specified target proteins in Table 1, including LN211, LN411, LN421, and LN521, the phage library”, “processed through” for “processed by”, “on TG1” for “on TGI”
DNA sequences were trimmed of all vector amino acids and imported as a peptide dataset into Power BI. Power BI was used to identify phage display sequences for specific columns (corresponding to each target protein) in order to identify sequences that were distinct for each protein target. The Power BI code evaluated each individual sequence for each protein target against the sequences present in other protein targets in a test for uniqueness. Using the distinct flag, the Power BI code generated a filtered peptide dataset that excluded any peptide sequence that occur in more than one column which identified a specific protein target. This method therefore identified candidate peptide sequences showing selective binding to an individual target protein. Unique sequences in each column were sorted by individual counts such that the most selected sequences appeared at the top of the column.

In another test the target is Human MPZ (human) (UniProt P25189). In words: phage display, NGS count.

Sequence of Human Myelin PLP (human) (P60201 2-277 limits assumed): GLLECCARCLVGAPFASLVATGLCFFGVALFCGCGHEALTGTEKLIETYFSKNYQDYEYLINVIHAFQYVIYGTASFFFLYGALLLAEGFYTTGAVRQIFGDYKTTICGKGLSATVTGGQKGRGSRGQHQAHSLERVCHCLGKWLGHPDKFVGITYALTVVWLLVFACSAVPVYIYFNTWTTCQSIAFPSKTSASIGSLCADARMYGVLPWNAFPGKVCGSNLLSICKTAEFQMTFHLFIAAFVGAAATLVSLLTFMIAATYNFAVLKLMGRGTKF

With GLRTMEP (Nidogen-2-binding peptide), the Count with Human Nidogen-2 amounted to 7.

In the case of SMWSQFR (peptide), the Count in the test with Human Myelin PLP (human) [1] and with Human Myelin PLP (human) [2] was 34 each time.

As to NILSQVN (Nidogen-2-binding peptide), the Count in the test on Human Nidogen-2 was 6.

On to QTLRPKQ (Nidogen-2-binding peptide), for which, in the test with Human Nidogen-2, the Count was 6.

In the case of TSPWELR (R3 Human MPZ-binding peptide), the Count is listed as 108 in the test with Human MPZ [3] and 107 with Human MPZ [4].

As to TNPWKPH (peptide), the Count with Human Myelin PLP (human) [1] and in the test with Human Myelin PLP (human) [2] was 62 in each case.

Regarding VLTKPMP (R3 Human MPZ-binding peptide), the Count in the test on Human MPZ [3] and in the test with Human MPZ [4] was 56 each time.

Consider QMDAKHM (Nidogen-2-binding peptide), for which, in the test with Human Nidogen-2, the Count was 6.

EKPSWTR (peptide): the Count in the test with Human Myelin PLP (human) [1] and with Human Myelin PLP (human) [2] was 33 each time.

For LHITPEV (Nidogen-2-binding peptide), the Count in the test with Human Nidogen-2 was 6.

For the substance LRFQIPP (peptide), the Count with Human Myelin PLP (human) [1] and with Human Myelin PLP (human) [2] was 44 throughout.

Turning to MTPHTSC (peptide), the Count with Human Myelin PLP (human) [2] worked out at 62.

Consider TIASLLV (Nidogen-2-binding peptide), for which the Count with Human Nidogen-2 came to 6.

Consider ATLKPYR (peptide), for which the Count in the test with Human Myelin PLP (human) [1] and with Human Myelin PLP (human) [2] was 68 throughout.

For GLIRHYT (peptide), the Count in the test with Human Myelin PLP (human) [1] and with Human Myelin PLP (human) [2] was 66 each time.

Regarding NPNWRTI (peptide), the Count with Human Myelin PLP (human) [1] and in the test with Human Myelin PLP (human) [2] was 34 each time.

Consider ALYLPGR (Nidogen-2-binding peptide), for which, in the test with Human Nidogen-2, the Count came out at 7.

With CIHHKGVLC (Nidogen-2-binding peptide), the Count in the test on Human Nidogen-2 turned out to be 6.

With SHSPGNK (R3 Human MPZ-binding peptide), the Count amounted to 79 with Human MPZ [3] and 67 in the test with Human MPZ [4].

As to LTHHFAP (peptide), the Count in the test with Human Myelin PLP (human) [1] and in the test with Human Myelin PLP (human) [2] was 40 each time.

On to VLKNNPT (R3 Human MPZ-binding peptide), for which the Count with Human MPZ [3] was determined as 87; with Human MPZ [4] it was 86.

RFELPAP (peptide): the Count with Human Myelin PLP (human) [1] and in the test with Human Myelin PLP (human) [2] was 52 throughout.

For the substance GPFLFTV (peptide), the Count with Human Myelin PLP (human) [2] came to 47.

As for TPWLPTI (Nidogen-2-binding peptide), the Count in the test on Human Nidogen-2 stood at 7.

As for YPKLWTY (peptide), the Count with Human Myelin PLP (human) [1] and in the test with Human Myelin PLP (human) [2] was 35 in each case.

Take YTPMGTG (peptide): the Count with Human Myelin PLP (human) [1] and with Human Myelin PLP (human) [2] was 50 each time.

Substance SHLASRP (R3 Human MPZ-binding peptide) yielded a Count with Human MPZ [4] of 97.

On to ARMAFSL (Nidogen-2-binding peptide), for which the Count in the test on Human Nidogen-2 was 7.

As for YNHTMMY (Nidogen-2-binding peptide), the Count in the test with Human Nidogen-2 is listed as 7.

FKMPIPT (peptide): the Count with Human Myelin PLP (human) [1] and with Human Myelin PLP (human) [2] was 34 each time.

On to DRNSVFW (R3 Human MPZ-binding peptide), for which the Count with Human MPZ [3] and in the test with Human MPZ [4] was 50 throughout.

As to RVPHSRT (R3 Human MPZ-binding peptide), in the test with Human MPZ [4], the Count worked out at 49.

For CVDKMASVC (Nidogen-2-binding peptide), the Count in the test with Human Nidogen-2 is 6.

QLLESRT (Nidogen-2-binding peptide): in the test with Human Nidogen-2, the Count turned out to be 6.

As for WLAAGSQ (Nidogen-2-binding peptide), the Count in the test with Human Nidogen-2 is on record as 6.

Consider CRSPHEPMC (Nidogen-2-binding peptide), for which, in the test with Human Nidogen-2, the Count amounted to 6.

As to WPSISRP (R3 Human MPZ-binding peptide), the Count is 58 in the test on Human MPZ [3] and 57 in the test with Human MPZ [4].

GLTPKLF (R3 Human MPZ-binding peptide) had a Count with Human MPZ [4] of 48.

In the case of LSSPLSL (R3 Human MPZ-binding peptide), the Count in the test on Human MPZ [3] and with Human MPZ [4] was 56 in each case.

For the substance LALYARM (peptide), the Count in the test with Human Myelin PLP (human) [1] and with Human Myelin PLP (human) [2] was 44 in each case.

As to RHNVEFS (peptide), the Count with Human Myelin PLP (human) [1] and with Human Myelin PLP (human) [2] was 42 each time.

As to GPLRMAT (R3 Human MPZ-binding peptide), the Count turned out to be 51 in the test with Human MPZ [3] and 50 with Human MPZ [4].

As to LSIRGLT (Nidogen-2-binding peptide), the Count in the test with Human Nidogen-2 was 6.

“GDERIVRTLSHN (R3 Human MPZ-binding peptide)” had a Count with Human MPZ [4] of 47.

Consider CSFKMNQKC (Nidogen-2-binding peptide), for which the Count in the test with Human Nidogen-2 is recorded as 8.

For DTSRTME (peptide), the Count in the test with Human Myelin PLP (human) [1] and with Human Myelin PLP (human) [2] was 33 in each case.

As for TESLFPH (R3 Human MPZ-binding peptide), the figures for the Count in the test with Human MPZ [3] and with Human MPZ [4] were 52 and 50, respectively.

In the case of ATYNMSQ (Nidogen-2-binding peptide), in the test with Human Nidogen-2, the Count was 7.

With SAHAKHH (R3 Human MPZ-binding peptide), the Count is listed as 52 in the test with Human MPZ [3] and 51 with Human MPZ [4].

As to IKPPYTH (R3 Human MPZ-binding peptide), the Count with Human MPZ [3] was found to be 82; with Human MPZ [4] it was 78.

With CSSSAPRIC (Nidogen-2-binding peptide), the Count in the test on Human Nidogen-2 is recorded as 9.

On to ALPLSAS (R3 Human MPZ-binding peptide), for which the values for the Count in the test with Human MPZ [3] and in the test with Human MPZ [4] were 197 and 196, respectively.

Regarding CYSAPTKSC (Nidogen-2-binding peptide), the Count in the test with Human Nidogen-2 was 6.

Take LVHPFHG (Nidogen-2-binding peptide): in the test on Human Nidogen-2, the Count is on record as 8.

In the test with Human Myelin PLP (human) [2], FPVVTRN (peptide) had a Count of 42.

In the case of HSRLPTP (Nidogen-2-binding peptide), the Count with Human Nidogen-2 was determined as 13.

Turning to NPSHHPR (peptide), the Count in the test with Human Myelin PLP (human) [1] and in the test with Human Myelin PLP (human) [2] was 37 in each case.

HLDSRRH (peptide): the Count with Human MPZ (human) worked out at 46.

YGQSITE (peptide) yielded a Count in the test with Human MPZ (human) of 37.

In the test with Human MPZ (human), NPISPRN (peptide) yielded a Count of 38.

Regarding HQGSRTY (peptide), the Count in the test with Human Myelin PLP (human) [1] and with Human Myelin PLP (human) [2] was 53 in each case.

Turning to SETESYM (peptide), in the test with Human MPZ (human), the Count is 41.

On to KQPAMEN (peptide), for which the Count with Human MPZ (human) turned out to be 37.

As to CKDGHIRHC (Nidogen-2-binding peptide), the Count in the test with Human Nidogen-2 is on record as 6.

Regarding LVLSNPR (peptide), the Count in the test with Human MPZ (human) turned out to be 46.

The substance VPLAYLR (peptide) yielded a Count with Human MPZ (human) of 40.

As to EAMMHRN (Nidogen-2-binding peptide), in the test on Human Nidogen-2, the Count was 6.

Consider CNLATSLQC (Nidogen-2-binding peptide), for which, in the test on Human Nidogen-2, the Count was 6.
